Experimental findings from patent US20210309751A1 are described below.

In experiment [1] the target is RevCAR harboring the La 5B9 epitope tag, on RevCAR expressing cells (human). The experiment can be described thus: binding assay on RevCAR expressing target cells.
Experiment [2] has as its target CD123 (interleukin-3 receptor a chain) on CD123-expressing OCI-AML3 blasts (human) (UniProt P26951). Put plainly: binding assay on CD123-expressing OCI-AML3 cells.
Chain of UniProt P26951 (P26951 19-378): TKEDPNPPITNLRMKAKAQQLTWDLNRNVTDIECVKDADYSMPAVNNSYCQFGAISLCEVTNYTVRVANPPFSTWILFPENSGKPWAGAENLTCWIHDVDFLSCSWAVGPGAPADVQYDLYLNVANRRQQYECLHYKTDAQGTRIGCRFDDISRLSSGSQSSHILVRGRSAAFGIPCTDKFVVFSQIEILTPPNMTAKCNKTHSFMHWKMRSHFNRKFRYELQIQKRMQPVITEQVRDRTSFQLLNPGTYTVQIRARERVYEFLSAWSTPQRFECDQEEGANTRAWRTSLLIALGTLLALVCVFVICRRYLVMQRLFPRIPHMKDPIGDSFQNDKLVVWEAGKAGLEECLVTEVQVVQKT

B1: AdMo CD123-La5B9 (CD123-specific adapter module with an scFv recognizing the La 5B9 epitope) (bispecific antibody, part only; not given: linkers, domain order, tags, V domains shown, not shown: another chain or arm of the molecule; small tags and cut ends)
VH 1: QVQLVQSGAEVKKPGASVKVSCKASGYTFTHYYIYWVRQAPGQGLEWMGGVNPSNGGTHFNEKFKSRVTMTRDTSISTAYMELSRLRSDDTAVYYCARSEYDYGLGFAYWGQGTLVTVSS
VL 1: DIVMTQSPDSLAVSLGERATINCKSSQSLLNSRTPKNYLAWYQQKPGQPPKLLIYWASTRKSGVPDRFSGSGSGTDFTLTISSLQAEDVAVYYCKQSYNLLTFGGGTKVEIK
VH 2: EVQLQQSGPELVKPGASVKMSCKASGYTFTDYYMKWVKQSHGKSLEWIGDIIPSNGATFYNQKFKGKATLTVDRSSSTAYMHLNSLTSEDSAVYYCTRSHLLRASWFAYWGQGTLVTVS
VL 2: DFVMTQSPSSLTVTAGEKVTMSCKSSQSLLNSGNQKNYLTWYLQKPGQPPKLLIYWASTRESGVPDRFTGSGSGTDFTLTISSVQAEDLAVYYCQNDYSYPYTFGGGTKLEIK
With B1, the values for the dissociation constant Kd in experiment [1] and in experiment [2] were 0.012 nM and 0.015 nM, respectively.

As usually defined, the Kd is the free concentration of one partner at which half of the binding sites on the other are occupied at equilibrium, for simple one-to-one binding. A low value points to higher affinity.
